Test [1] deals with T1, full-length human TIGIT on cells (human, UniProt Q495A1 22-244).
T1 construct: whole, on cells; The same protein is used for CHO-hTIGIT, PBMC and NK92-hTIGIT; the cells are named under assay; also called CHO-hTIGIT; hTIGIT
T1 sequence (looked up): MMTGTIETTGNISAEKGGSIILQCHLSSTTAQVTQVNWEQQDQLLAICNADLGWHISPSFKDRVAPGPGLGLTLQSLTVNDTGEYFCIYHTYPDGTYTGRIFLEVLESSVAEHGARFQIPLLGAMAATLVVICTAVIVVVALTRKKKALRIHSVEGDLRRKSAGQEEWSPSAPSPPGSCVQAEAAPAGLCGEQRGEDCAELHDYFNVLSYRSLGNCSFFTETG
In words: FACS titration on PBMC of healthy people (natural TIGIT); unit taken from the x axis Log[µg/mL]; the curve still rises at the highest concentration (MFI about 11000 at log 1), no plateau, the fitted value lies outside the range shown. As to the method: (§1) In order to verify that the prepared anti-human TIGIT antibody may effectively bind to naturally expressed TIGIT, the following experiments were specifically performed. PBMC cells in healthy people to be detected were counted, centrifuged at 300 g for 5 min, resuspended with an FCM buffer; and cell density was adjusted to 4E+06 cell/mL for later use. Samples to be detected (including a positive control antibody and a mouse monoclonal antibody) were diluted with the FCM buffer to 20 μg/mL, and then the FCM buffer was used to perform 3× serial dilutions of 12 concentration points; and the isotype control antibody was diluted with the FCM buffer to 20 μg/mL. According to an experimental design, in each well, 50 μL of the antibody and 50 μL of the cell (the volume of each cell added into a 96-well V-shaped plate being 2E+05 cell/well) were respectively added in the 96-well V-shaped plate; and incubation was performed in dark on ice for 30 min. Centrifugation (300 g/5 min) was performed; supernatant was discarded; 200 μL of the FCM buffer was added for washing once; centrifugation (300 g/5 min) was performed; and the supernatant was discarded. […] Centrifugation (300 g/5 min) was performed; supernatant was discarded; 200 μL of the FCM buffer was added for washing once; centrifugation (300 g/5 min) was performed; and the supernatant was discarded. […]

The target in test [2] is T2, hTIGIT-hFc (human, UniProt Q495A1 22-141).
T2 construct: also called antigen protein hTIGIT-hFc; human TIGIT recombinant protein carrying a human Fc tag; not shown: human Fc tag
T2 sequence (looked up): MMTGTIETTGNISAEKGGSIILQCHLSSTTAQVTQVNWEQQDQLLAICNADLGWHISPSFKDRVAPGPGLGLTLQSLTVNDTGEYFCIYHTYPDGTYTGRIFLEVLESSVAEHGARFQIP
In words: FACS blocking: hTIGIT-hFc bound on U2-OS cells (PVR and CD112), then antibody, APC anti-human IgG Fc; first row of the table, row head not printed (fits the midpoint of the Tigit-5 curve; like table in Fig. 6A); unit from the x axis Log[µg/mL]. As for the experimental part: (§2) U2-OS cells to be detected (human osteosarcoma cells, naturally and highly expressing PVR and CD112 by means of detection) were counted; centrifugated at 300 g for 5 min; resuspended with an FCM buffer; and cell density was adjusted to 4E+06 cell/mL for later use. […] According to an experimental design, in each well, 50 μL of the antigen protein and 50 μL of the cell (the volume of each cell added into a 96-well V-shaped plate being 2E+05 cell/well) were respectively added in the 96-well V-shaped plate; and incubation was performed in dark on ice for 30 min. Centrifugation (300 g/5 min) was performed; supernatant was discarded; 200 μL of the FCM buffer was added for washing once; centrifugation (300 g/5 min) was performed; and the supernatant was discarded. The antibody was added to the 96-well V-shaped plate (in 100 μL/well); and incubation was performed in dark on ice for 30 min. Centrifugation (300 g/5 min) was performed; supernatant was discarded; 200 μL of the FCM buffer was added for washing once; centrifugation (300 g/5 min) was performed; and the supernatant was discarded. Secondary antibodies (APC anti-human IgG Fc, 1:500 dilution) were added to the 96-well V-shaped plate (in 100 μL/well); and incubation was performed in dark on ice for 30 min. […]

The target in test [3] is T1, full-length human TIGIT on cells. Nature of the test: FACS titration on PBMC of healthy people (natural TIGIT), PE goat anti-mouse IgG; number as printed beside the name, the marker of the legend lies on the leftmost curve. As to the method:
as §1

Test [4] has as its target T2, hTIGIT-hFc. In words: FACS blocking: hTIGIT-hFc bound on CHO-hCD112 cells, then antibody, APC anti-human IgG Fc; blocked partner CD112; unit as printed on the x axis, Log(uM); the method's top concentration of 20 µg/mL and the nM values of Fig. 5B speak for nM. As for the experimental part:
as §2, with “The CHO-engineered cell CHO-hCD112” for “U2-OS”, “recombinantly” for “to be detected (human osteosarcoma cells, naturally and highly”, “full-length human” for “PVR and”, “CD112” for “CD112 by means of detection)”

What is called EC50 is the concentration at which the effect is half-maximal. Low values mean a more potent agent, high ones a less potent agent. As usually defined, the IC50 is the midpoint of a concentration-inhibition curve. Low values mean higher potency, high ones lower potency.

B1: Tigit-5 mouse monoclonal antibody (antibody, V domains shown)
VH: QVQLQQPGAELVRPGASVKLSCKASGYSFTSYWMNWVKQRPGQGLEWIGMIRPSDSETRLNQMFKDKATLTVDKSSSTAYMQLSSPTSDDSAVYYCAGIHDYGHGAYWGQGTLVTVSA
VL: DIQMIQSPASLSVSVGETVTITCRASENIYSNLAWYQQKQGKSPQLLVYAASHLPDGVPSRFSGSGSGTQYSLKINSLQSEDFGSYYCQHFWGTPRTFGGGTKLEIKR
notes: Mouse monoclonal antibody from hybridoma
In test [1], B1 displayed an EC50 of about 310 µg/mL. Further, in the test with hTIGIT-hFc [2], the IC50 worked out at 0.335 µg/mL.

B2: 14Tigit-1-1 mouse monoclonal antibody (antibody, V domains shown)
VH: DVQLQESGPGLVKPSQSLSLTCTVTGYSITSDYAWNWIRQFPGNKLEWMGYISYSGSTRSNPSLKSRISITRDTSKNQFFLQLNSMTAEDTATYYCGGWEVRNYYAMDYWGQGTSVTVSS
VL: DIVMTQSHKFMSTSVGDRVSITCKASQHVSTAVAWYQQKPGQSPKLLIYSASYRYTGVPDRFTGSGSGTDFTFTISSVQAEDLAVYYCQQHYNTPWTFGGGTKLEIKR
notes: as for B1
B2 showed an EC50 in test [3] of 0.179 nM. This molecule yielded an IC50 with hTIGIT-hFc [4] of 2600 nM.

(Values after patent US20240002500A1 (GUANGDONG FAPON BIOPHARMA, published 2024).)
